From patent US20230365705A1 (DYNAMICURE BIOTECHNOLOGY, published 2023) come the findings set out here.

Experiment [1] deals with T1, Human CD93 recombinant protein (Sino Biological Inc, Catalog #12589-H08H) (human, UniProt Q9NPY3 22-580).
T1 construct: Biotinylated (EZ-LINK NHS-PEG4 biotin) in the BLI assays; also called hCD93; His-tagged human CD93
T1 sequence (looked up): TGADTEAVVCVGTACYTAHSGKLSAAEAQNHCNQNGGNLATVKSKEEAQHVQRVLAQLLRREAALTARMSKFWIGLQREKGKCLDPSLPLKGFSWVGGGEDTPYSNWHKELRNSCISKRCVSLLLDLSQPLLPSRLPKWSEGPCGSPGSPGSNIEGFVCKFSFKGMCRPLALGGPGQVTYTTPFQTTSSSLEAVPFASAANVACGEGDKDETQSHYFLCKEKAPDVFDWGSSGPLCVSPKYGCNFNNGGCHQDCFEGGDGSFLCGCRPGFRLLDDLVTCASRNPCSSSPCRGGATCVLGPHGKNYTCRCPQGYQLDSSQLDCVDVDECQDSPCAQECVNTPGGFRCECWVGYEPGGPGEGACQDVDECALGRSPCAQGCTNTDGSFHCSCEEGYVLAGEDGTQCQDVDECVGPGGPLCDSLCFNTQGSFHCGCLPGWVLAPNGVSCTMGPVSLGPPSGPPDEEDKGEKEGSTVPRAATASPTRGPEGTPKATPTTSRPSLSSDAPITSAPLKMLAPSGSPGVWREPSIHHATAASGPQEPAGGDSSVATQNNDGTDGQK
Description: BLI (Octet QKe), biotinylated human CD93 on streptavidin biosensors; antibody stored 2 weeks at 40 C. How it is done: The binding affinity of anti-CD93 antibodies was determined with bio-layer interferometry using Octet QKe (Fortebio). […] Human CD93 recombinant protein (Sino Biological Inc, Catalog #12589-H08H) was biotinylated using EZ-LINK NHS-PEG4 biotin (Thermo Fisher Scientific). Streptavidin biosensors (Fortebio) were used to load biotinylated CD93 protein (300 seconds in 5 μg/ml). Baseline was stabilized for 60 seconds in 1× kinetics buffer (Fortebio) before anti-CD93 antibodies, at a serial dilution, were allowed to associate for 300 seconds with captured protein. Then the sensors were dissociated in 1× kinetics buffer for 600 seconds. […] (FIG. 42).

For experiment [2], the target named is T1, Human CD93 recombinant protein (Sino …). Description: ELISA, hCD93-His coated, OD450; unit printed as pmM. How it is done:
His-tagged human CD93 was coated onto a 96 well plate at 1 μg/mL in 1×PBS overnight at 4° C. The plate was washed with ELISA wash buffer (Boston BioProduct, Inc.) and the wells were blocked with ELISA blocking buffer for 1 hour at 37° C. Purified antibodies were serially diluted in ELISA blocking buffer (Boston BioProduct, Inc.) and incubated on the receptor for 1 hour at 37° C. The plate was washed with ELISA wash Buffer. […] The plate was washed with ELISA wash buffer. HRP substrate was added for indirect detection of the antibodies binding to CD93.

Experiment [3] has as its target T2, Human CD93 on cells (human CD93 expressing CHO cells; HUVEC, U937 and KG1a cells) (human, UniProt Q9NPY3 22-652).
T2 construct: whole, on cells; also called hCD93 expressing CHO cells; hCD93 CHO cells
T2 sequence (looked up): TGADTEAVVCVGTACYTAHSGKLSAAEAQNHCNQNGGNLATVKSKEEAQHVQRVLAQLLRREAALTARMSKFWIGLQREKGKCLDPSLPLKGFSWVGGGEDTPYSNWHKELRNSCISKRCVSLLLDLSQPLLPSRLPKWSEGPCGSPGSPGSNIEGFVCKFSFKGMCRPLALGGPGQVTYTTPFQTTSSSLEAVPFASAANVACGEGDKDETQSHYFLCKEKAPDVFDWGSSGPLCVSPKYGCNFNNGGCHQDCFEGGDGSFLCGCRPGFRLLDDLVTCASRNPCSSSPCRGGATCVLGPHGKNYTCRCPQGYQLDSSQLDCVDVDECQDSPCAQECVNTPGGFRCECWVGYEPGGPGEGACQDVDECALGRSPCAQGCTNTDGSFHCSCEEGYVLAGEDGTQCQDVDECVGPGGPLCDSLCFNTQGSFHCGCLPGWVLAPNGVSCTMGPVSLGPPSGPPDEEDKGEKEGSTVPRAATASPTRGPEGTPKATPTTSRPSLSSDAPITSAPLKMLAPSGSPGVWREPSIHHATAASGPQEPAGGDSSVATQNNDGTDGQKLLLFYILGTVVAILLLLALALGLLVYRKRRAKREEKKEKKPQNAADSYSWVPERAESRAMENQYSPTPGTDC
Description: summary table, column FACS (HUVEC cells); 4 weeks at 40 C. On the procedure:
HUVEC cells were detached by incubation with TrypLE reagents (Thermo Fisher), which preserves the integrity of CD93 on the cell surface. Then the cells were incubated with serial diluted anti-CD93 antibodies for 30 minutes at 4° C. After washing by FACS buffer, the cells were incubated with Alexa Fluor 647 conjugated anti-human IgG (Jackson ImmunoResearch) for 30 minutes in 4° C. After washing by FACS buffer twice, the samples were acquired in NovoCyte Flow Cytometer and analyzed by NovoExpress software.

In experiment [4] the target is T2, Human CD93 on cells (human CD93 …). Description: flow cytometry titration, CHO-hCD93 cells; antibody stored 2 weeks at 40 C. How it is done:
Human CD93 expressing CHO cells were detached by incubation with TrypLE reagents (Thermo Fisher), which preserves the integrity of CD93 on the cell surface. Then the cells were incubated with serial diluted anti-CD93 antibodies for 30 minutes in 4° C. After washing by FACS buffer, the cells were incubated with Alexa Fluor 647 conjugated anti-human IgG (Jackson ImmunoResearch) for 30 minutes at 4° C. After washing by FACS buffer twice, the samples were acquired in NovoCyte Flow Cytometer and analyzed by NovoExpress software.

The target is the same in experiment [5]. Description: flow cytometry blocking assay, CHO-hCD93 cells; blocked ligand hMMRN2 495-674 at 0.1 ug/ml; antibody stored 2 weeks at 40 C. How it is done:
Then the cells were incubated with hMMRN2₄₉₅₋₆₇₄ at 0.1 μg/ml. […] After washing with FACS buffer twice, the samples were analyzed, and data acquired in NovoCyte Flow. Recombinant his tagged hMMRN2₄₉₅₋₆₇₄ was produced internally in E. Coli following routine procedure.

B1: h16E4 (humanized 16E4, VH4+VL6) (antibody, V domains shown)
VH: QVQLVQSGAEVKKPGASVKVSCKASGYTFTSYWMHWVRQAPGQGLEWMGEIDPSASYTYYNQKFKGRVTMTRDKSSSTVYMELSSLTSEDSAVYYCARSVYYGNKYFDVWGAGTTVTVSS
VL: DIQMTQSPSTLSASVGDRVTITCKASQSVDYAGDSYMNWYQQKPGKAPKLLIYAASNLESGVPSRFSGSGSGTEFTLTISSLQPDDFATYYCQQTNEDPRTFGGGTKLEIK
notes: Detected with anti-human IgG, so a human Fc
With B1, in experiment [1], the Kd is 0.0204 nM, the koff is 5.08e-06 s⁻¹ and the kon came to 249000 M⁻¹ s⁻¹.

B2: 16E4 (hybridoma) (antibody, IgG2a, V domains shown)
VH: QVQLQQPGAELVKPGASVKLSCKASGYTFTSYWMHWVKQRPGQGLEWIGEIDPSASYTYYNQKFKGKATLTVDKSSSTAYMQLSSLTSEDSAVYYCARSVYYGNKYFDVWGAGTTVTVSS
VL: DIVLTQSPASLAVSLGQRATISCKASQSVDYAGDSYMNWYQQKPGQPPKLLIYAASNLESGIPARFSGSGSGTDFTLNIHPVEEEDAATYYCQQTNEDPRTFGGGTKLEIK
notes: also called 16E4 mAb; 16E4 mIgG2a
On to B2, for which the EC50 in experiment [2] is 0.112 nM.

B3: h7F3 (humanized 7F3, VH3+VL3) (antibody, human IgG1, V domains shown)
VH: QVQLVQSGAEVKKPGASVKVSCKASGYTFTDYEMHWVRQAPGQGLEWMGGIDPETGDTAYNQNFKGRVTMTTDTSTSTAYMELRSLTSDDTAVYYCTNYGNLYYYAMDYWGQGTSVTVSS
VL: EIVLTQSPSSLSASVGDRVTITCRASSSVSSSYLHWYQQKPGKAPKLLIYSTSNLAFGVPSRFSGSGSGTSYTFTISSLQPEDIATYYCQQYSGYPLTFGSGTKLEIK
notes: also called humanized 7F3-hIgG1
As to B3, the EC50 in experiment [3] worked out at 1.12 nM; in experiment [4] it was 0.194 nM. The IC50 in experiment [5] was determined as 0.133 nM.
